Source: IntAct's records for PubMed 19448033

What was measured:
cipko_arath CIPK24 [1] = molecular target: cipko_arath CIPK24 (UniProt Q9LDI3)
cipko_arath CIPK24 [2] = molecular target: cipko_arath CIPK24 (UniProt Q9LDI3); remark: listed apart in the source

cipko_arath CIPK24, sequence (Q9LDI3 whole entry): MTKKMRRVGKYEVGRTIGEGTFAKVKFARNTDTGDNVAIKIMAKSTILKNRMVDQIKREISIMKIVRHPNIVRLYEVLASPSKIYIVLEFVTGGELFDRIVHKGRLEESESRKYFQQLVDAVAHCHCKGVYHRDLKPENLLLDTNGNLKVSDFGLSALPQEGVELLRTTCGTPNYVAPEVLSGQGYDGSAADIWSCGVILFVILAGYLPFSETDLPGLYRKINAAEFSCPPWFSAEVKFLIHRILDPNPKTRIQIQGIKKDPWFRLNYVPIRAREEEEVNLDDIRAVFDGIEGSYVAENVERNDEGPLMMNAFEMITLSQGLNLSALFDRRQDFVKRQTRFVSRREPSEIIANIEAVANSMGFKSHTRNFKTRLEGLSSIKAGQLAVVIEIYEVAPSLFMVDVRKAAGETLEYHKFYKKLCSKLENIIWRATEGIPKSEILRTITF
Calcineurin B-like protein 10 (Arabidopsis thaliana (Mouse-ear cress)), Q7FRS8-2 S237A, sequence (Q7FRS8 other isoform, or with tags, fused parts or gaps S237A): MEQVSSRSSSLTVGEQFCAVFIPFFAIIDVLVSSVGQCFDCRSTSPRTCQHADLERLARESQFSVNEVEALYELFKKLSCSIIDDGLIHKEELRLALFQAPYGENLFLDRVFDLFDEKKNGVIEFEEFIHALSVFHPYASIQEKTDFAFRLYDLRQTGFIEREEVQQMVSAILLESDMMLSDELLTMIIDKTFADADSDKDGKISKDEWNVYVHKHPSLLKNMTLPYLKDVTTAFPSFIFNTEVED
Calcineurin B-like protein 10 (Arabidopsis thaliana (Mouse-ear cress)), Q7FRS8-2 S237D, sequence (Q7FRS8 other isoform, or with tags, fused parts or gaps S237D): as the sequence (Q7FRS8 other isoform, or with tags, fused parts or gaps S237A) above

effect of a mutation on the interaction (cipko_arath CIPK24 [1]) | effect of a mutation on the interaction (cipko_arath CIPK24 [2]) | Substance
disrupting interaction | decreasing interaction | Calcineurin B-like protein 10 (Arabidopsis thaliana (Mouse-ear cress)), Q7FRS8-2 S237A
– | increasing interaction | Calcineurin B-like protein 10 (Arabidopsis thaliana (Mouse-ear cress)), Q7FRS8-2 S237D
